Data from the DeepSol protein solubility set.

Assay: soluble on expression in E. coli; label from the status in PepcDB or PDB records

Sequence	soluble on expression in E. coli
MSLSENPIASVRLLRLQREEASLQQYRDNIGALKSQLTKNETLLDGISANLRDARDLLVAAANQPPTDDLKAMASPLVSLRDSILYAANTKDSEGRYMFSGSAVNNAAIVVDDTQPAGSRYRYNGNGDRQRVTVGEGVTEASNVTLESMAPLLNQLDKAIATLQSPTLDSKDPAVGATIREVMGGVDTALDRVGGTISELGGAQNVLKTLDGNHDSLSLANQESIIELGSLDYGTAYIAMNNLSMALQTSQKAYGKVSQLTLFDVIEGHHHHHH	soluble
MKLSLRQLQIFCAVAQHGSTTSAAISVSLSQSATSAALNELESALDTRLFDRVGKRLVLNDNGHALLPQARRMLENAQQIEASFLPGHAGLKTRLRVGCSTTIGNYVLPLILGELRQSTPHLRVDVDMANSMAIARRVADFEIDMGLIEGPCHLPELSAEPWLIDELLIAAGQRHPLALKQQVTLDDLRTAEWLLREPGSGTREEVEQLLLRHLHDLAETRQIGSSEAIKHTLAQGIGISCLSRWVVRDLLASEVLVELPHALPALTRRFFLIRHRDKYISPGLERFWEKCSQFVSQE	not soluble
MAHHHHHHMMSRFETSPRDRRYNSAVRSSLFSFVLRRRRNLHDKKKPPLSANGPLTSVVHPRARNHLPDEVNLTTTLVRSCFCINIAPLPARSCASYSPRCSEQTVSRFFPHPFTFRASAIRGHNARLQLRRCTHHFLETPL	not soluble
MGENVLICLCGSVNSINISHYIIELKSKFDEVNVIASTNGRKFINGEILKQFCDNYYDEFEDPFLNHVDIANKHDKIIILPATSNTINKIANGICDNLLLTICHTAFEKLSIFPNMNLRMWENPVTQNNIRLLKDYGVSIYPANISESYELASKTFKKNVVAPEPYKVLEFI	not soluble
MLKTPLYESHMAANAKMVDFSGWSMPINYGSQIQEHNNVREDCGIFDVSHMLAVDIQGSEAEKFLRYLLANDVAKLQENKAQYGCMLNHDAGIVDDLITYKVTDEHFRIVVNAGNRESDVAWFNQNAQNFDVAITPQTDLAIVAVQGPKAVAVIKRVVTKEIATEIEALLPFSFKFFSKWMVARTGYTGEDGFEVILPATQVKKFWDSLLENGAQPAGLGARDTLRLEAGMHLYGADMDTSTTPLERGLGWSVDLSDEHRDFIGKKAYFAKKAQGVDTKWVGVVLKTKGVLRAGQEIDFDNGEKGYITSGSFSPTLKVAIGLAYVPKQADNPVVNIRGKELEVELVKPKFVKNGKSLI	not soluble
MSLKIIPYSVNVMDEHGVIIASGEPSRLRQRHEGAILALKENRIVEIDSATANQLKGVRSGINLPISFHEQLIGVVGITGEPEEVRAYAELVKMAAELVIEHMVLIEQRQWDKRYREELINQLILRENSTESLRSMAAYLGIDLAVPRVVLIIELSQPDREALRNVMDYFENHARNHLVTFTEFNELIIIKPITLKEGKWNTRQEMGELQIFKSWAASSGFSRILVGGYFAGETGLHRSLLTARATQAMAKRQKLRSQYIFYHDHALPALLSGLSESWQVQELSRLWLQLVQHDAKGVLQQTLRTWFEHNCDLTQTAKALHIHVNTLRYRLQRCEDITHIKINELKSTLWLYIGMELQAESVSSDKLPLPGREGHHHHHH	not soluble
MIEVKPETPDDWWEVEALYDLCFAPGRTALSSYRLRDDVPPVAGLSLVARDSDGTLAGAIRFWPVHVGDLDALLLGPVAVHPTHQGEGLGGFLIQEGLEAGREGGWARVMLVGDAPYYSRFGFARLEGVEMPPPTNPDRVLGLEL	not soluble
MSGVTAIEIPQWIQDNQEDFVPPVCNKCMFSDQLKVFYVGGPNQRKDFHLEEGEEFFFQRKGDMVLKVIEKGQVRDLVIKQGEMFMLPARVEHSPQRFSNSIGLVVERERKNTEFDCVRFLVGSSNITLFERWFYLTDVVKDLPPLIKEFYGSNEFKTGKPGKGTFACNAPYEARWTDLPVPINRKEFIYDHISEVKNGPVRIYGAPEYKTEVMLLGEGSYDLESGTVELLIWLQENTFAVVEESGFTYAMKSETMVRIKPNTKCLLNVKGGFAITIRMPA	not soluble
MSLRGALAGMLALGCLTTSTLAFERWTLEARGKSGYDAPKLEWVEGKTINEIKNPTIQYALPKFEGDVFWDTINAKPVVPDSIYGEFVQYGYELFVNTQAVIGPEVADPNMRYSGNNLSCNSCHLGAGTAKYAAPLVDNHANFPQYRNRENSLGTMAARVNGCMQRSMNGYPLPAEGKEMKAFLAYIHWLGQGIPVGAKIEGRSLKTVDRKMVQQNAADVKNGAEVYARDCASCHGAEGEGLRRESKDGKPAGYEFPPLWGSDDTYNTGAGMYRTLKAADFIKSTMPKGAPTLSDKDAYDVAAFINDYSHYRTVKLNRQNDFVDPKVRVPDHDQPGPYGPEGSYIFPDEGKTQMDYKVGPYKGIIKQKPAAKEGHHHHHH	not soluble
MIQSDLDLFGPQPQRLASHTVLLPGFALAETEALLDALRPVLRAAPFRHMYTPGGLRMAVALTNCGTLGWVSDQHGYRYSPSDPVSGQPWPALPPVLLALASRAAAMAGFDGFVPDACLVNHYLPGTRLSLHQDRDEQDFGQPIVSVSLGLPAVFLFGGLQRADKAQRIALSHGDVLVWGGVDRLRFHGVLPIKPGVHPRLGERRINLTLRKAGALEHHHHHH	not soluble
MKLAVITDSTATLPTDLKQDKAIFSLDIPVIIDDETYFEGRNLSIDDFYQKMADSQNLPKTSQPSLSELDNLLGLLSSKGYTHVIGLFLAGGISGFWQNIQFLAEEHPEIEMAFPDSKITSAPLGSMVKNVLDWSRQGMTFQAILNKLQEQIDGTTAFIMVDDLNHLVKGGRLSNGSALLGNLLSIKPILRFDEEGKIVVYEKVRTEKKAMKRLVEILNDLIADGQYNVFIIHSKAQDKADYLKRLLQDSGYQYDIEEVHFGAVIATHLGEGAIAFGVTPRL	not soluble
MMRIAVKEFLKIRRELKTLSDIRKLPYPRGTLHCILQQKKVDSVKRKYHTFAERIPEIISYWEREKKFPKWLTLPPVMKIRLLMKGMGFSAKSINKALRNPEDVVEDEKLAEQIRKAVLSDYVYSPIAARLQRARGKLGERGLAYELEKAGIEFLTEKDLKGRFSKTPDFYFEEPVEFMGEELKWIESKALFGDPRSHDLYWKKQYSKYYEMFGNGLIVYWLGCVESIEASDGSEFKNGYRTSLLDMLLYLTDSKDESYAERLNARFIEVNEQNDVLAAEKVVDAYAEGRVLAFTDRKREVARILKNMGFDVTLGQNYLTTLTANTLCHSPTANKAISLLSSLLCLINHPNLLLSAENPASLKFLLKYLFRNLLEHHHHHH	not soluble
MGSDKIHHHHHHMLESTKQFLKKYNINDRVLKLYETAMNDIQNQFKILDDIREFNQLKVLNAFQEERISEAHFTNSSGYGYGDIGRDSLDAVYARVFNTESALVRPHFVNGTHALGAALFGNLRPGNTMLSVCGEPYDTLHDVIGITENSNMGSLKEFGINYKQVDLKEDGKPNLEEIEKVLKEDESITLVHIQRSTGYGWRRALLIEDIKSIVDCVKNIRKDIICFVDNCYGEFMDTKEPTDVGADLIAGSLIKNIGGGIAPTGGYLAGTKDCIEKTSYRLTVPGIGGECGSTFGVVRSMYQGLFLAPHISMEALKGAILCSRIMELAGFEVMPKYDEKRSDIIQSIKFNDKDKLIEFCKGIQTGSPIDSFVSCEPWDMPGYTDQVIMAAGAFIQGSSIELSADAPIREPYIAYLQGGLTFDHAKIGILIALSRIVK	not soluble
PFTYSIEATRNLATTERCIQDIRNAPVRNRSTQFQLAQQNMLAYTFGEVIPGFASAGINGMDYRDVIGRPVENAVTEGTHFFRDDFRVDSNAKAKVAGDIFEIVSSAVMWNCAARWNSLMVGEGWRSQPRYSRPTLSPSPRRQVAVLNLPRSFDWVSLLVPESQEVIEEFRAGLRKDGLGLPTSTPDLAVVVLPEEFQNDEMWREEIAGLTRPNQILLSGAYQRLQGRVQPGEISLAVAFKRSLRSDRLYQPLYEANVMQLLLEGKLGAPKVEFEVHTLAPEGTNAFVTYEAASLYGLAEGRSAVHRAIRELYVPPTAADLARRFFAFLNERMELVNG	soluble
MGFHLRGLGGSLKPLPFSTMYLEATGKSIEADLRTVFARDPKLSVMSEPKGAQAVVSVVSENQSKDILTINTGGRINEYQLTYTVVVRTVIGGVPVDPDMVVTVRRSLNYSDNQVLGKQQEEDLLWADARRDAAEQIVRRLAYLKVPAAPLAGPVSVKPDAVPQPLEHHHHHH	soluble
MSAEAAAVEVQANEAPIVAPIMYKVESSDGQVYEISDEAVKQSNTLSNLISTCVANDVASMDPIPITNVTGNIMKMVIEWCEKHKGETLPVEDDSVPKNITVPEWDTNFLKIDNDVLFDLIVASNFLDVPGLMSYACKMVANMAIGKSPDEMRVLFAIPTDEEDEAAEKAAKEKAEAEKKAITEKDAAEPSTSK	soluble
TNTEAFCTSCHEMQSNVFEELTRTVHYTNRSGVRAGCPDCHVPHEWTDKIARKMQASKEVWGHLFGTIDTRRKFLDNRLRLAEHEWARLKANDSLECRNCHSEVAMDFTRQTDRAAQIHTQYLIQTEGYTCIDCHKGIAHEL	not soluble
MIMIFTSSCCDNLSIDEIIERAEKGDCEAQYIVGFYYNRDSAIDSPDDEKAFYWLKLAAEQGHCEAQYSLGQKYTEDKSRHKDNEQAIFWLKKAALQGHTFASNALGWTLDRGEAPNYKEAVVWYQIAAESGMSYAQNNLGWMYRNGNGVAKDYALAFFWYKQAALQGHSDAQNNLADLYEDGKGVAQNKTLAAFWYLKSAQQGNRHAQFQIAWDYNAGEGVDQDYKQAMYWYLKAAAQGSVGAYVNIGYMYKHGQGVEKDYQAAFEWFTKAAECNDATAWYNLAIMYHYGEGRPVDLRQALDLYRKVQSSGTRDVSQEIRETEDLLLEHHHHHH	not soluble
MSLRVTYRRRLSYNTTSNKKRLVKTPGGRLVVQYIKKRGQIPKCRDTGVKLHGITPARPIALRLLKRNERTVTRAYGGCLSPNAVKERITRAFLVEEQKIVNKVIKHQKD	not soluble
SNPFAHLAEPLDPVQPGKKFFNLNKLEDSRYGRLPFSIRVLLEAAIRNCDEFLVKKQDIENILHWNVTQHKNIEVPFKPARVILQDFTGVPAVVDFAAMRDAVKKLGGDPEKINPVCPADLVIDHSIQVDFNRRADSLQKNQDLEFERNRERFEFLKWGSQAFHNMRIIPPGSGIIHQVNLEYLARVVFDQDGYYYPDSLVGTDSHTTMIDGLGILGWGVGGIEAEAVMLGQPISMVLPQVIGYRLMGKPHPLVTSTDIVLTITKHLRQVGVVGKFVEFFGPGVAQLSIADRATIANMCPEYGATAAFFPVDEVSITYLVQTGRDEEKLKYIKKYLQAVGMFRDFNDPSQDPDFTQVVELDLKTVVPCCSGPKRPQDKVAVSDMKKDFESCLGAKQGFKGFQVAPEHHNDHKTFIYDNTEFTLAHGSVVIAAITSCTNTSNPSVMLGAGLLAKKAVDAGLNVMPYIKTSLSPGSGVVTYYLQESGVMPYLSQLGFDVVGYGCMTCIGNSGPLPEPVVEAITQGDLVAVGVLSGNRNFEGRVHPNTRANYLASPPLVIAYAIAGTIRIDFEKEPLGVNAKGQQVFLKDIWPTRDEIQAVERQYVIPGMFKEVYQKIETVNESWNALATPSDKLFFWNSKSTYIKSPPFFENLTLDLQPPKSIVDAYVLLNLGDSVTTDHISPAGNIARNSPAARYLTNRGLTPREFNSYGSRRGNDAVMARGTFANIRLLNRFLNKQAPQTIHLPSGEILDVFDAAERYQQAGLPLIVLAGKEYGAGSSRDWAAKGPFLLGIKAVLAESYERIHRSNLVGMGVIPLEYLPGENADALGLTGQERYTIIIPENLKPQMKVQVKLDTGKTFQAVMRFDTDVELTYFLNGGILNYMIRKMAK	soluble
